{"source": "paper PMC6265462", "target": "T1, Pho7-DBD (279-339) (Schizosaccharomyces pombe, UniProt O13658 279-339)", "T1 sequence": "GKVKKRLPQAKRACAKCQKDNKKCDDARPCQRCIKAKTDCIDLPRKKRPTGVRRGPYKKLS", "assay": "crystal structure", "data": [{"binder": "tgp1 crystal duplex (dsDNA) DNA 1: TCCTTCGGACATTCAAATCA DNA 2: GATTTGAATGTCCGAAGGAT", "values": [{"measurement": "binding result", "value": "binds"}]}]}
